The supplement of paper PMC9170038

What was measured:
[1] = system: K4 kissing-loop RNA reporter; test: apparent KD of K4 kissing-loop reporter; higher = weaker reporter binding; conditions: Eterna round: R107;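 note: bound reporter read as fluorescence of individual clusters on recovered sequencing chips by microscopy, with normalized cluster intensities fitted with a binding model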
Method: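 RNA-MaP round R107: designed RNA switches with theophylline, tryptophan, arginine or FMN aptamers are transcribed on-chip within common flanks. They are titrated with a labelled K4 kissing-loop RNA reporter in RNA-MaP buffer (100 mM Tris pH 7.5, 80 mM KCl, 4 mM MgCl2), without ligand or with the indicated ligand. Median apparent KD per design.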

MS2 coat protein = test: apparent KD of MS2 coat protein; designed switch direction (-1 OFF switch, 1 ON switch): -1; higher = weaker reporter binding
Summary of the method: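 Each step of the titration lasted 0.8–1.5 h at the lowest concentration and 10–20 min at the highest. The protein, SNAP-549-labelled MS2 coat protein, went from 0.7 or 1.5 nM doubling to 3 µM over RNA switches transcribed on Illumina chips by stalled E. coli RNA polymerase. Normalised cluster fluorescence was curve-fitted, and the per-design median over clusters is given as apparent KD.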

[2] = input ligand: theophylline 20 uM
[3] = input ligand: tryptophan 2.4 mM
[4] = input ligand: microRNA oligo, concentration not stated
[5] = Eterna round: R95, input ligand: FMN 200 uM
[6] = Eterna round: R95, input ligand: microRNA oligo, concentration not stated
[7] = Eterna round: R95, input ligand: none

Sequence	apparent KD of K4 kissing-loop reporter ([1]; input ligand: FMN 200 uM)	apparent KD of K4 kissing-loop reporter ([1]; input ligand: arginine 13.2 mM)	apparent KD of K4 kissing-loop reporter ([1]; input ligand: none)	apparent KD of K4 kissing-loop reporter [1, 2]	apparent KD of K4 kissing-loop reporter [1, 3]	apparent KD of MS2 coat protein (MS2 coat protein; input ligand: FMN 200 uM)	apparent KD of MS2 coat protein (MS2 coat protein; input ligand: none)	further results
UGUCAUUGGUCGGCCGCCACUAGGACCGGGUAUAACCUAGUGAUGUUAGUAAGUACGGCCGCCACUAGGACCGGGACCGAUGACU [KL-SSTryp-B19 #DoubleAptamer]	484 nM	369 nM	583 nM	462 nM	87.5 nM			
CACGAUGAAUUCUCUAGGAGUGAUGUUUUUCGAGGACCGGUACGGCCGCCACUCGGACGACGAGCGUGGUAGCGGCCUGAAGACU [,omullin]	743 nM	225 nM	468 nM	680 nM	380 nM			
GUCGGCCGCGCGCAAGCGCGGCCGGCCGAUACCAGCGCGCCGGCGCGCCCUUGGCAGCGGCGCCGAGUGAUGUUCGGCCUGACGU [#2 Same State - Theophylline A Attempt #7 (HarryS)]	710 nM	538 nM	704 nM	601 nM	917 nM			
GUCUGUGUACUAGGAUAUGGUUGCAGACAGUCAGGUCGCCUUUUCGGCGGCCAGUGAUGUUGGUGGCCAGAAGGAGUACGUGAAG [Biririge]	384 nM	1580 nM	1110 nM	395 nM	1480 nM			
GGCACGGUAACGCAACCGCCGUGCGCUUGGGAGGAUAUGUUUCGUGACAGAAGGCCCAGUGAUGUUGGGUCUGUUCAAAAGGACU [Ceenerus]	355 nM	124 nM	105 nM	122 nM	88.7 nM			
AGAUUCGACACGGCCGCCACUUCCAGUGGCUGGUGUCAUGGUGCGCGUGAGUGAUGUUUAUGUGGAAGGACCGGGUGUUGAGUCU [KL-XTryp-B1 #analogue]	938 nM	554 nM	917 nM	606 nM	1190 nM			
CCUUCUCUUGAUAGUGAUGUUAUCGAGGACAAGGAUAUCAUCUCAAUGAGAAGGUGUCCUUGAUAACAUGGAGGUCUGAAACAGA [Omei KL FMN A Exc C v9]	205 nM	355 nM	439 nM	427 nM	454 nM			
AGCAAUAUCACGGCCGCCACUGAAUAUUGUUUUUAUAUUUAUAAAUCUUGCCAGUGAUGUUGGUUCAGGACCGGGUGAGUUAAUA [JR_SSTryptoB_Sub004]	573 nM	603 nM	783 nM	665 nM	412 nM			
GUUUGCCGGUCCCGGAGUGAUGUUCCGGAUACCAGCAACUUCCUUUGCCCUUGGCAGCCGUAGCUAUACCGGGUGGCAGCUUCAG [Anresoenus]	111 nM	89.5 nM	104 nM	110 nM	111 nM			
UGAUACCAGACGGCCGCCACUCCCGCAGGUCAAAGACCUGCGAAGCUGGUUCUUCAGUGAUGUUGGAGGACCGGGUCUGGUAUCU [FiskerMod 24 - Jieux - Exclusion - Tryptophan B]	306 nM	230 nM	266 nM	263 nM	504 nM			
UUUUAUUCGUACUUCUAGUGAUGUUAGAUUCGAGGACCGGUACGGCCGCCACUCGUUAAGGCGAUUUUAUAUUUUUUAUUCUUUA [JR_SSTryptoA_Sub012]	182 nM	165 nM	179 nM	165 nM	138 nM			
GGAUAGGAUAGAGGAUAUGGAGAACACAAAAGUGACUUGUUGUGUUUAUCCAUAGGGAGUGAUGUUCCAGAAGGCUGUCCUAUCG [MatMod 24 - Jieux - Exclusion - FMN B]	296 nM	178 nM	201 nM	183 nM	156 nM			
UAUUAAUUGUCAGGAUAUCGAAAUCGAGUGAUGUUCGUAAAUUAAUUAUUAUUAAUAAUAUUUAAACGAGAAGGGACAUUAUUUA [JR_SSFMNB_Sub001]	235 nM	558 nM	694 nM	647 nM	442 nM			
AUUACAUCUGAAAAGCUAGUGAUGUUAGCUCGAGGACCGGUACGGCCGCCACUCGCAUAGCGAGGCCAAGUCGCGGUUAACGGAG [theeternabot_exclusion_KL_Trp_A_4]	96.7 nM	86.7 nM	97.2 nM	89.1 nM	83.3 nM			
GGUACUCAAAGAGUACCAAUACGAACAUGAGGAUCACCCAUGUAGGAUAUGCUACUCAAAGAGUAGCAGAAGGACAUGUACCUU [Far Half Aptamer v6] (Eterna round: R96, puzzle: Exclusion NG 3)						227 nM	29.5 nM	apparent KD of MS2 coat protein (MS2 coat protein; [4]): 19.7 nM
AAUGUUUGAUACCUUUAAUACAUGAGGAUCACCCAUGUUAUCGAGGAUAUGUAGAAGAGAUGAGAACAGAAGGCGAAGUAAGAG [JR_ExcNG3_Sub097] (Eterna round: R96, puzzle: Exclusion NG 3)						29.5 nM	15.1 nM	apparent KD of MS2 coat protein (MS2 coat protein; [4]): 10.5 nM
AAGGCGGUAGGAUAUACAUGAGGAUCACCCAUGUACGCGUGGAUCCCUGUGACGUCAAGUAGAAGGGCCAUAAA [Xetesobiar] (Eterna round: R97, puzzle: Exclusion 3)						27.5 nM	31.8 nM	
AGCCACAGAGGAUAUACAUACAUCCAGUAGUUGAGAAGACUACAUGAGGAUCACCCAUGUAGAAGGCUGUGGCA [Omei Ex2 BD B3] (Eterna round: R97, puzzle: Exclusion 2)						95.5 nM	395 nM	

Sequence	apparent KD of K4 kissing-loop reporter ([1]; input ligand: FMN 200 uM)	apparent KD of K4 kissing-loop reporter ([1]; input ligand: arginine 13.2 mM)	apparent KD of K4 kissing-loop reporter ([1]; input ligand: none)	apparent KD of K4 kissing-loop reporter [1, 2]	apparent KD of K4 kissing-loop reporter [1, 3]	apparent KD of MS2 coat protein (MS2 coat protein; input ligand: FMN 200 uM)	apparent KD of MS2 coat protein (MS2 coat protein; input ligand: none)	further results
AAUGAGCUAGGAUAUACAUGAGGAUCACCCAUGUAAAAUAGGUCAUGGAUGAACCACUGUAGAAGGAGCAGGGC [Ateseszave] (puzzle: Exclusion 3)								apparent KD of MS2 coat protein (MS2 coat protein; [5]): 95.6 nM; apparent KD of MS2 coat protein (MS2 coat protein; [6]): 146 nM; apparent KD of MS2 coat protein (MS2 coat protein; [7]): 105 nM
GGUUGACAUGAGGAUCACCCAUGUGAGGAUAUGCGAGAGAAAAAAGUGAGGAAGAAAAGCAGAAGGCGCUGUCG [salish99-ex1_r3_003] (puzzle: Exclusion 1)								apparent KD of MS2 coat protein (MS2 coat protein; [5]): 29.8 nM; apparent KD of MS2 coat protein (MS2 coat protein; [6]): 22.4 nM; apparent KD of MS2 coat protein (MS2 coat protein; [7]): 45.5 nM
AAUGUUGUUGUGAGGAUAUCGUAGUUAUUUUGAAACGAGAAGGCACAUGAGGAUCACCCAUGUUUGUUGAUGGU [JR_BMOE4_Sub061] (puzzle: Brourd's mod of Exclusion 4)								apparent KD of MS2 coat protein (MS2 coat protein; [6]): 20.8 nM
CUUUUGUGAGGAUAUCAUUAGUAAAAAAAUAAAAUUACUACUGAGAAGGCACAUGAGGAUCACCCAUGUUCCUC [salish99_ex4_r3_034] (puzzle: Exclusion 4)								apparent KD of MS2 coat protein (MS2 coat protein; [6]): 37.6 nM
GUAGAGUCAGGAUAUACGAGAUCGAAAGAUCGGCGAUCCAAACAUGAGGAUCACCCAUGUAGAAGGGACUCUAC [Eli x2 4.004] (Eterna round: R97, puzzle: Exclusion 2)						579 nM	41 nM	
GAAAAGGUAGGAUAUACGAAAAAAAAGGGUAGAAAAAAAACACAUGAGGAUCACCCAUGUAGAAGGACCGAAAG [salish99_ex2_r3_037] (puzzle: Exclusion 2)								apparent KD of MS2 coat protein (MS2 coat protein; [5]): 58.5 nM; apparent KD of MS2 coat protein (MS2 coat protein; [6]): 36.8 nM; apparent KD of MS2 coat protein (MS2 coat protein; [7]): 32.7 nM
UAAUGUAUAUAGGAUAUCUAGCUGGAUACAGCUAGAGAAGGAUGUACAUGAGGAUCACCCAUGUAAAUCAGUGA [Ex6/14-B3] (Eterna round: R97, puzzle: Exclusion 6)						206 nM	39.3 nM	
CGACUGGUAGGAUAUACAUGAGGAUCACCCAUGUACCUGACAUGAGAAUAAACCAUCGGUAGAAGGGCUAAGUC [Eternabot (L2) Solution 79] (Eterna round: R97, puzzle: Exclusion 3)						21.8 nM	21.3 nM	
UUAAUUAAUUGACUGCAAGAUCAACAUGAGGAUCACCCAUGUGAGGAUAUCAGCUCGAUUAGAGCUGAGAAGGCACAAGCAGUC [ExNG3/16-A1] (Eterna round: R96, puzzle: Exclusion NG 3)						80.4 nM	17.5 nM	apparent KD of MS2 coat protein (MS2 coat protein; [4]): 15 nM
AAAAUGUGAGGAUAUCAGGUGUGCUAGCGAACUGGUACAUCUGAGAAGGCACAUGAGGAUCACCCAUGUUCCUU [Mat - Exclusion 4 - Mod of JL - D51] (puzzle: Exclusion 4)								apparent KD of MS2 coat protein (MS2 coat protein; [6]): 16.2 nM
CCGGAAAUGCAGGAUAUCGUAUCGGAUACGAUACGAGAAGGGUAUACAUGAGGAUCACCCAUGUGUCCUGCCGG [Fiskers Ex 6 - 54] (puzzle: Exclusion 6)								apparent KD of MS2 coat protein (MS2 coat protein; [6]): 39.8 nM
AGCGUGGAGACAGGAUAUGAGAAUAGAUAGAACUCAGAAGGGUCACAUGAGGAUCACCCAUGUAAAGUCUUGAGGAUGAGUGAU [Prohibition 4 - Jieux - Exclusion NG 1] (Eterna round: R96, puzzle: Exclusion NG 1)						192 nM	73.5 nM	apparent KD of MS2 coat protein (MS2 coat protein; [4]): 57.7 nM
GCUUGGCGAGGAUAUACAUGAGGAUCACCCAUGUGAGAGAAUAAAGUGAGGAAGAAAAGUAGAAGGCGCUGAGG [Mat - Exclusion 3 - Mod of Salish D58] (Eterna round: R96, puzzle: Exclusion 3)						181 nM	54.5 nM	apparent KD of MS2 coat protein (MS2 coat protein; [4]): 45 nM
ACAUGUCAUCGAGGAUAUUGCACACAUGAGGAUCACCCAUGUAUUCGGUUGCUCUCGCGUGAGUUCGAGAAGGCGAUGUACAUU [Ex NG2 #84] (Eterna round: R96, puzzle: Exclusion NG 2)						276 nM	48.9 nM	apparent KD of MS2 coat protein (MS2 coat protein; [4]): 36.6 nM
AGCUAGAUAGGAUAUGCCCGGGAUAACAUGAGGAUCACCCAUGUGGCCGAAUCAAGUCCAGCAGAAGGGUUUGGGA [Mod of ViennaUCT 11 - Jieux - Exclusion 5] (Eterna round: R97, puzzle: Exclusion 5)						43.2 nM	34.8 nM	
CUAAAUCAUGUAGGAUAUGCGUGGCGAAGCUAUGCAGAAGGACAUGAGGAUCACCCAUGUCUUUCCGUCUGCGUACAGACGGAA [JL ENG1 1.19] (Eterna round: R96, puzzle: Exclusion NG 1)						303 nM	23.5 nM	apparent KD of MS2 coat protein (MS2 coat protein; [4]): 17.3 nM
CUGUAACAUGAGGAUCACCCAUGUCAGGAUAUCUAUCAUAGCAUCGAAAGAUGCGGGUAGAGAAGGGACUAUCC [ChP Ext 10-04-2015 #8] (puzzle: Exclusion 1)								apparent KD of MS2 coat protein (MS2 coat protein; [6]): 14.5 nM
